Key:
[1] = target: T1, Peptide-132; experiment: BLI (Octet), biotinylated peptide on sensor, Fab in solution
T1 peptide: YCEGHLPEYRNKCL

[2] = target: T2, Peptide-127; experiment: as above
T2 peptide: YCEGHLPEYLAKCL

[3] = target: T3, Peptide-135; experiment: as above
T3 peptide: YCEGHLPEYIWKCL

[4] = target: T4, Peptide-87; experiment: as above
T4 peptide: YCAGHAWQYINKCL

[5] = target: T5, Peptide-121; experiment: as above
T5 peptide: YCEGHAPEYIAKCL

[6] = target: T6, Peptide-120; experiment: as above
T6 peptide: YCEGHLPEYIEKCL

[7] = target: T7, Peptide-134; experiment: as above
T7 peptide: YCEGHLPEYIQKCL

[8] = target: T8, Peptide-126; experiment: as above
T8 peptide: YCEGHLPEYREKCL

[9] = target: T9, Peptide-146; experiment: binding ELISA, biotinylated peptide on neutravidin plate, Fab titrated
T9 peptide: TCSAGAAYSWPACF

[10] = target: T10, Peptide-153; experiment: as above
T10 peptide: TCAAGATYLWPTCL

[11] = target: T11, Peptide-142; experiment: as above
T11 peptide: TCAAGATWSWPACF

[12] = target: T12, Peptide-150; experiment: as above
T12 peptide: TCSAGAHYPWPICL

[13] = target: T13, Peptide-140; experiment: as above
T13 peptide: TCAAGAAWPWPQCL

[14] = target: T14, Peptide-148; experiment: as above
T14 peptide: SCSAGAHYPWPQCF

[15] = target: T15, Peptide-139; experiment: as above
T15 peptide: TCSAGASYPWPLCL

[16] = target: T16, Peptide-137; experiment: as above
T16 peptide: TCSAGATWPWPICL

[17] = target: T17, Peptide-149; experiment: as above
T17 peptide: TCSAGATYEWPRCL

[18] = target: T18, Peptide-151; experiment: as above
T18 peptide: SCSAGAAYYWPWCL

[19] = target: T19, Peptide-92; experiment: as above
T19 peptide: SCAAGASYAWPYCL

[20] = target: T20, Peptide-138; experiment: as above
T20 peptide: LCAAGASWPWPVCL

[21] = target: T21, Peptide-144; experiment: as above
T21 peptide: LCAAGATYPWPLCL

[22] = target: T22, Peptide-118; experiment: as above
T22 peptide: YCEGHRPEYILKCL

[23] = target: T1, Peptide-132; experiment: as above
[24] = target: T23, Peptide-122; experiment: as above
T23 peptide: YCEGHAPEYIRKCL

[25] = target: T2, Peptide-127; experiment: as above
[26] = target: T24, Peptide-124; experiment: as above
T24 peptide: YCEGHSQENIWKCL

[27] = target: T25, Peptide-129; experiment: as above
T25 peptide: YCEGHSSEYIQKCL

[28] = target: T26, Peptide-123; experiment: as above
T26 peptide: YCEGHAPEYIWKCL

[29] = target: T3, Peptide-135; experiment: as above
[30] = target: T27, Peptide-119; experiment: as above
T27 peptide: YCEGHEGIYFWKCL

[31] = target: T28, Peptide-128; experiment: as above
T28 peptide: YCEGHSQEYLWKCL

[32] = target: T29, Peptide-117; experiment: as above
T29 peptide: YCEGHSPEYILKCL

[33] = target: T4, Peptide-87; experiment: as above
[34] = target: T5, Peptide-121; experiment: as above
[35] = target: T6, Peptide-120; experiment: as above
[36] = target: T7, Peptide-134; experiment: as above
[37] = target: T8, Peptide-126; experiment: as above
[38] = target: T30, Peptide-136; experiment: as above
T30 peptide: YCEGHAPEYIGKCL

[39] = target: T31, Peptide-125; experiment: as above
T31 peptide: YCEGHLPEYLGKCL

[40] = target: T32, Peptide-133; experiment: as above
T32 peptide: YCEGHLPEYLEKCV

Off rate t½ [1]: 48 s | Off rate t½ [2]: 60 s | Off rate t½ [3]: 54 s | Off rate t½ [4]: 42 s | Off rate t½ [5]: 24 s | Off rate t½ [6]: 30 s | Off rate t½ [7]: 54 s | Off rate t½ [8]: 36 s | EC50 [9]: 24.3 nM | EC50 [10]: 20.5 nM | EC50 [11]: 4.5 nM | EC50 [12]: 10.6 nM | EC50 [13]: 2.6 nM | EC50 [14]: 19 nM | EC50 [15]: 5.3 nM | EC50 [16]: 2.1 nM | EC50 [17]: 12.8 nM | EC50 [18]: 112 nM | EC50 [19]: 18.9 nM | EC50 [20]: 13.1 nM | EC50 [21]: 5.6 nM | EC50 [22]: 65.8 nM | EC50 [23]: 3.2 nM | EC50 [24]: 7.8 nM | EC50 [25]: 1.7 nM | EC50 [26]: 28.1 nM | EC50 [27]: 30.5 nM | EC50 [28]: 8.1 nM | EC50 [29]: 2.1 nM | EC50 [30]: 128 nM | EC50 [31]: 59.4 nM | EC50 [32]: 11 nM | EC50 [33]: 30.6 nM | EC50 [34]: 7.1 nM | EC50 [35]: 3.1 nM | EC50 [36]: 1.3 nM | EC50 [37]: 3.4 nM | EC50 [38]: 44.9 nM | EC50 [39]: 12.1 nM | EC50 [40]: 32.5 nM
B1: anti-CD28 Fab (Fab, V domains shown)
VH: QVQLVQSGAEVKKPGASVKVSCKASGYTFTSYYIHWVRQAPGQGLEWIGSIYPGNVNTNYNEKFKDRATLTVDTSISTAYMELSRLRSDDTAVYFCTRSHYGLDWNFDVWGQGTTVTVSS
VL: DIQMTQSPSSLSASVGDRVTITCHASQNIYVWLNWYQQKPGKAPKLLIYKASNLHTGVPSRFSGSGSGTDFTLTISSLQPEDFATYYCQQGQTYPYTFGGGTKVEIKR

From patent US20260242478A1 (published 2026)
